Measurements as given in PMC11367332, “Neutralizing IL-38 activates γδ T cell-dependent antitumor immunity and sensitizes for chemotherapy” (Journal for Immunotherapy of Cancer, 2024).

What was measured:
CD8+ T cells = assay: CD8+ T-cell proliferation assay (co-culture with cDC1); type: cell-based, mouse; conditions: 5 µM added daily
Protocol: CD8+ T cells from murine spleen and cDC1 from PyMT tumors treated in vivo with anti-IL-38 antibodies were isolated by FACS-sorting. CD8+ T cells and cDC1 were co-cultured at a ratio of 1:40 in the T-cell medium. Cells were pre-incubated with either 100 nM anti-IL-38 or 100 nM IgG isotype control, activated with mouse T-cell activator CD3/CD28 Dynabeads (Thermo Fisher Scientific) and supplemented with 10 ng/mL rm IL-2 (PrepoTech) at days 0, 2 and 5 and 50 μM β-mercaptoethanol daily. For the Notch signaling blockade, 5 µM γ-secretase inhibitor DAPT (Abcam) was added daily. For CD8+ T cell culture, 100 ng/mL rm IL-38 (AdipoGen) was added daily. Supernatants were collected for cytokine determination at days 3, 5 and 7 and cell proliferation was analyzed by flow cytometry.
To measure the cytokines in PyMT tumors and cell culture supernatants, Cytometric Bead Array Flex Sets (BD Biosciences) were used for murine IL-17A and IFN-γ. The samples were acquired via FACS and analyzed with FlowJo Software V.10 (Tree Star).

PyMT tumors [1] = assay: Therapeutic model of chemoresistance in PyMT mice (doxorubicin with or without anti-IL-38); type: in vivo, mouse
Source text: The C57BL/6N IL-38 knockout (KO) strain was previously described.[10] For the polyoma virus middle T oncoprotein (PyMT) model, IL-38 KO mice were crossed with the PyMT mammary carcinoma strain, previously bred into a C57BL/6 background.[19] Only female PyMT mice were used. Tumor development in PyMT wildtype (WT) versus IL-38 KO mice was monitored once a week for up to 8 weeks, starting at 12 weeks using electronic calipers. For IL-38 neutralization, PyMT WT mice were intraperitoneally (i.p.) injected with 100 µg of either anti-IL-38 antibody (e04, in-house generated) or IgG1 (Human IgG1, Bio X Cell) isotype control. […] The treatment started at week 13 and tumor growth was monitored once a week. Group sizes were determined based on prior experience with the model. […]
(§1) For preparing single-cell suspensions, PyMT tumors were processed with the Tumor Dissociation Kit (Miltenyi Biotec) and gentleMACS Dissociator (Miltenyi Biotec) according to standard protocols. […] Samples were acquired with an FACSymphony A5 or FACSymphony S6 flow cytometer (BD Bioscience) and the data was analyzed in FlowJo software V.10 (Tree Star). […] For the gating strategy, fluorescence minus one controls were applied. […]

[2] = biological target: T1, mIL-38-Avi (murine IL-38 with Avi tag) (Mus musculus, UniProt Q8R459); assay: BLI; Octet RED96; mIL-38-Avi immobilised on streptavidin biosensors at 2 µg/mL; Fab from 250 to 7.8 nM in 1:1 dilution steps; 150 mM NaCl, 50 mM Tris-HCl pH 7.5, 0.1% BSA, 0.02% Tween 20; 1:1 analyte model with global fit; conditions: both partners purified
T1 construct: interleukin-38 (IL-38, IL-1 family member 10), mouse; PDB 8Q3J holds mIL-38 and may show the limits of the construct; also called mouse IL-38

PyMT tumors [3] = assay: IL-38 neutralization in PyMT mammary carcinoma model; type: in vivo, mouse
Source text: The C57BL/6N IL-38 knockout (KO) strain was previously described.[10] For the polyoma virus middle T oncoprotein (PyMT) model, IL-38 KO mice were crossed with the PyMT mammary carcinoma strain, previously bred into a C57BL/6 background.[19] Only female PyMT mice were used. Tumor development in PyMT wildtype (WT) versus IL-38 KO mice was monitored once a week for up to 8 weeks, starting at 12 weeks using electronic calipers. For IL-38 neutralization, PyMT WT mice were intraperitoneally (i.p.) injected with 100 µg of either anti-IL-38 antibody (e04, in-house generated) or IgG1 (Human IgG1, Bio X Cell) isotype control. For CD8+ T cell depletion, PyMT WT mice were injected with 100 µg of anti-IL-38 antibody (e04) in combination with either 250 µg of anti-CD8 antibody (anti-mouse CD8α, Bio X Cell) or IgG2b (rat IgG2b, Bio X Cell) isotype control. In both experiments, the treatment started once the first tumor reached a size of 0.6 cm in diameter. The antibodies were injected once a week for 5 weeks. In the therapeutic model of chemoresistance, PyMT WT mice were i.p. injected with 5 mg/kg of doxorubicin (Teva Pharma) in combination with either IgG1 isotype control or anti-IL-38 antibody. The mice were treated with five once-weekly cycles of chemotherapy once the first tumor reached a size of 1.0 cm in diameter. For γδ T-cell receptor (TCR) neutralization, mice were separated into four groups, in which PyMT WT and IL-38 KO mice were treated with either anti-γδ TCR antibody (UC7-13D5, Bio X Cell) or IgG (polyclonal Armenian hamster, Bio X Cell) isotype control once a week for 5 weeks. Mice were i.p. injected once with 500 µg of antibodies, followed by 4 weekly injections of 200 µg.[20] The treatment started at week 13 and tumor growth was monitored once a week. Group sizes were determined based on prior experience with the model. No exclusion criteria were defined and no animals were excluded. Due to the nature of the model (treatment start for every single animal depends on individual parameters), simple randomization (no confounder minimization) was done and the experimenters were not blinded. Data analysis was done in a blinded manner. Animals were housed in groups at the Zentrale Forschungseinrichtung (animal testing facility), Faculty of Medicine, Goethe University Frankfurt. […]
as §1

[4] = biological target: T1, mIL-38-Avi (murine IL-38 with Avi tag); assay: BLI; Octet RED96; mIL-38-Avi immobilised on streptavidin biosensors at 2 µg/mL; IgG from 250 to 7.8 nM in 1:1 dilution steps; 150 mM NaCl, 50 mM Tris-HCl pH 7.5, 0.1% BSA, 0.02% Tween 20; 1:2 bivalent model; conditions: both partners purified
murine IL-38 = biological target: T2, murine IL-38 (Mus musculus, UniProt Q8R459); assay: Neutralization of IL-38 effect on IL-17 production by splenic γδ T cells; type: cell-based; conditions: γδ T cells on anti-CD3 plates, IL-1 and IL-23 + IL-38 and Fab, supernatants after 5 days
T2 construct: purchased AdipoGen AG-40B-0101-C010
T2 sequence (Q8R459 1-152): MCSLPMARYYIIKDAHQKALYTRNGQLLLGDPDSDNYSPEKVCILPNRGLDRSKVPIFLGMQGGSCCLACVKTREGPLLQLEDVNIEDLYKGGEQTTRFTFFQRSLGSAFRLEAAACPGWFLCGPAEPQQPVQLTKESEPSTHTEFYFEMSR
Protocol: Figure 2 IL-38 neutralization slows down tumor development and increases T-cell infiltrates into tumors. (A) Kinetic analysis and dissociation constants (Kd) of Fabs e04 and h06 selected by phage display binding to mouse IL-38 determined by biolayer interferometry. (B) Mouse splenic γδ T cells were seeded on anti-CD3 coated plates and treated with IL-1 and IL-23 + IL-38 and Fab fragments putatively recognizing […] murine IL-38. IL-17 levels in supernatants were analyzed after 5 days. Unrelated Fab fragments c05 and d09 were used as negative controls. Data are from four independent experiments. (C) SDS-PAGE analysis of purified e04 IgG. (D) Binding profile of e04 IgG and mouse IL-38 determined by biolayer interferometry. (E) Crystal structure of Fab E04 binding to recombinant IL-38. […] (F) Tumor growth was monitored when the first tumor reached 0.6 cm in diameter. […] (I) The overall immune cell profile (n=6), (J) γδ T-cell subsets (n=5–6) and (K) intracellularly produced cytokines (n=10–11) were determined by flow cytometry after 5 weeks of treatment. (L) Representative images of PyMT tumors stained for CD8, CD4 and CD3 and (M) quantification of indicated cells is shown. […] Data are shown as means±SEM. *p<0.05, **p<0.01, ***p<0.001; p values were calculated using unpaired multiple t-tests with FDR correction. […]

C[C@H](NC(=O)Cc1cc(F)cc(F)c1)C(=O)N[C@H](C(=O)OC(C)(C)C)c1ccccc1 [DAPT]
cDC1-induced IFN-γ production by CD8+ T cells (CD8+ T cells; cytometric bead array days 3, 5 and 7): strongly inhibited
cDC1-induced proliferation of CD8+ T cells (CD8+ T cells; flow cytometry at day 7): strongly inhibited

COc1cccc2c1C(=O)c1c(O)c3c(c(O)c1C2=O)C[C@@](O)(C(=O)CO)C[C@@H]3O[C@H]1C[C@H](N)[C@H](O)[C@H](C)O1 [doxorubicin]
IL-38 expression in the tumor (PyMT tumors [1]; Il1f10 mRNA by quantitative PCR, PyMT WT mice): increased IL-38 expression in the tumor
Tumor progression (PyMT tumors [1]; late-stage setting, start at tumor size 1 cm, doxorubicin 5 mg/kg i.p., five once-weekly cycles, antibody 100 µg/mouse): did not

B1: Fab e04 (Fab, V domains shown)
VH: EVQLVESGGGLVQPGGSLRLSCAASGFSFSSSSIHWVRQAPGKGLEWVASISPYYSYTSYADSVKGRFTISADTSKNTAYLQMNSLRAEDTAVYYCARTVRGSKKPYFSGWAMDYWGQGTLVTVSS
VL: DIQMTQSPSSLSASVGDRVTITCRASQSYYSYVAWYQQKPGKAPKLLIYSASSLYSGVPSRFSGSRSGTDFTLTISSLQPEDFATYYCQQVFAPITFGQGTKVEIK
notes: heavy chain (Fd) of Fab e04 from a synthetic Fab-phage library; light chain of Fab e04 from a synthetic Fab-phage library; Selected by phage display against murine IL-38; the library is described in the online supplemental methods; also called anti-IL-38 Fab fragment; source: E. coli BL21, purified (HiTrap Protein G)
Kd [2]: 6.7 nM

B2: IgG e04: Fab e04 converted into full-length IgG1 format; in-house generated IL-38 neutralizing antibody (antibody, V domains shown)
VH: B1 VH
VL: B1 VL
Expression of the PD-1/PD-L1 immune checkpoint in tumors (PyMT tumors [3]; CD8+ T cells, macrophages, tumor cells, flow cytometry): did not observe an impact
Tumor development (PyMT tumors [3]; PyMT WT mice, 100 µg i.p. once a week for 5 weeks, start at first tumor 0.6 cm, vs IgG1 isotype): marked delay in tumor development
Abundance of CD8+ T cells and γδ T cells in tumors (PyMT tumors [3]; flow cytometry after 5 weeks of treatment, vs IgG1 isotype): increased abundance of CD8+ T cells and γδ T cells in the tumors
Cytokine-producing γδ T cells in tumors (PyMT tumors [3]; intracellular cytokine staining, flow cytometry, after 5 weeks of treatment): IFN-γ rather than IL-17-producing γδ T cells were increased

B3: e04 IgG (Fab e04 converted into full-length IgG1) (antibody, V domains shown)
VH: B1 VH
VL: B1 VL
notes: variable part as the heavy chain of m2 (PDB 8Q3J), converted into full-length IgG1 format; as the light chain of m2 (PDB 8Q3J); IgG1; also called IgG e04; anti-IL-38 antibody (e04); source: Expi293F, transfected, purified from supernatant (HiTrap Protein G)
Kd [4]: 0.68 nM

B4: Fab e04: Fab fragment selected by phage display from a synthetic Fab-phage library, binds murine IL-38 (antibody, V domains shown)
VH: B1 VH
VL: B1 VL
Effect on IL-38 inhibition of IL-17 production by γδ T cells (murine IL-38): neutralized the inhibitory effect of IL-38 on IL-17 production by γδ T cells
